In the supplement of paper PMC9233669:
Variants at the floor of the assay were thinned out.

Key:
biotinyl-Leu-oxazolone = assay: self-aminoacylation, catalytic enhancement (BLO) (fold over background); higher = more active; k-Seq, kA / k0A0; sequences stand for … in GGGAAUGGAUCCACAUCUACGAAUUC…UUCACUGCAGACUUGACGAAGCUG
How it was run: (§1)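 Mutagenized RNA pools with a 21-nt variable region (0.43 μM) reacted with each biotinyl-aminoacyl-oxazolone at 2–1250 μM. Reactions ran in 50 μL HEPES/NaCl/KCl/MgCl2/CaCl2 buffer with 5% acetonitrile, pH 6.9–7.0, for 90 minutes at room temperature. Streptavidin-captured RNA was quantified by triplicate qPCR and Illumina sequencing, and per-sequence fraction reacted was fit to a pseudo-first-order model with 1000 bootstraps. Catalytic enhancement is median kA divided by the uncatalyzed rate, the low-activity peak of a bimodal Gaussian fit.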

biotinyl-Trp-oxazolone = assay: self-aminoacylation, catalytic enhancement (BWO) (fold over background); higher = more active; k-Seq, kA / k0A0; sequences stand for … in GGGAAUGGAUCCACAUCUACGAAUUC…UUCACUGCAGACUUGACGAAGCUG
How it was run: as §1

biotinyl-Phe-oxazolone = assay: self-aminoacylation, catalytic enhancement (BFO) (fold over background); higher = more active; k-Seq, kA / k0A0; sequences stand for … in GGGAAUGGAUCCACAUCUACGAAUUC…UUCACUGCAGACUUGACGAAGCUG
How it was run: as §1

biotinyl-Ile-oxazolone = assay: self-aminoacylation, catalytic enhancement (BIO) (fold over background); higher = more active; k-Seq, kA / k0A0; sequences stand for … in GGGAAUGGAUCCACAUCUACGAAUUC…UUCACUGCAGACUUGACGAAGCUG
How it was run: as §1

biotinyl-Met-oxazolone = assay: self-aminoacylation, catalytic enhancement (BMO) (fold over background); higher = more active; k-Seq, kA / k0A0; sequences stand for … in GGGAAUGGAUCCACAUCUACGAAUUC…UUCACUGCAGACUUGACGAAGCUG
How it was run: as §1

biotinyl-Val-oxazolone = assay: self-aminoacylation, catalytic enhancement (BVO) (fold over background); higher = more active; k-Seq, kA / k0A0; sequences stand for … in GGGAAUGGAUCCACAUCUACGAAUUC…UUCACUGCAGACUUGACGAAGCUG
How it was run: as §1

Row | Sequence | self-aminoacylation (biotinyl-Leu-oxazolone) | self-aminoacylation (biotinyl-Trp-oxazolone) | self-aminoacylation (biotinyl-Phe-oxazolone) | self-aminoacylation (biotinyl-Ile-oxazolone) | self-aminoacylation (biotinyl-Met-oxazolone) | self-aminoacylation (biotinyl-Val-oxazolone)
1 | GUAAUUCAAACAAUCGGUCUG [Fam1A.1 aminoacylation ribozyme variant] | 0.967 | 2.11 | 2.5 | 1.05 | 0.925 | 0.938
2 | GUACUCCAAACAAUCGGUCUG [Fam1A.1 aminoacylation ribozyme variant] | 0.944 | 1.84 | 2.05 | 1.06 | 0.967 | 1.04
3 | GUACUUCAAACAAGCGGUCUG [Fam1A.1 aminoacylation ribozyme variant] | 1.63 | 2.06 | 5.04 | 1.78 | 1.42 | 1.49
4 | GUACUUCAAACAAUCGAUCUG [Fam1A.1 aminoacylation ribozyme variant] | 0.862 | 1.64 | 1.72 | 1.18 | 0.863 | 0.987
5 | GUACUUCAAACAAUCGGUCUG [Fam1A.1 aminoacylation ribozyme variant] | 2.15 | 30.5 | 51.3 | 1.54 | 1.53 | 1.42
6 | GUACUUCAAACGAUCGGUCUG [Fam1A.1 aminoacylation ribozyme variant] | 1.32 | 1.8 | 1.38 | 1.14 | 1.13 | 1.08
7 | GUACUUCAAAGAAUCGGUCUG [Fam1A.1 aminoacylation ribozyme variant] | 1.46 | 4.9 | 3.28 | 1.26 | 1.07 | 1.24
8 | GUUACCCGGGUCAUCGAGUGA [Fam2.1 aminoacylation ribozyme variant] | 9.84 | 8.97 | 62.8 | 4.5 | 8.11 | 4.77
9 | GUUACCCUGAUCAUCGAGUGA [Fam2.1 aminoacylation ribozyme variant] | 9.43 | 11.1 | 32.3 | 3.61 | 8.85 | 4.23
10 | GUUACCCUGGACAUCGAGUGA [Fam2.1 aminoacylation ribozyme variant] | 9.14 | 9.84 | 48 | 4.6 | 8.05 | 4.58
11 | GUUACCCUGGUCACCGAGUGA [Fam2.1 aminoacylation ribozyme variant] | 13.1 | 14.8 | 79.2 | 5.31 | 11.2 | 6.95
12 | GUUACCCUGGUCAUCGAGAGA [Fam2.1 aminoacylation ribozyme variant] | 1.9 | 3.07 | 2.82 | 1.32 | 2.96 | 1.74
13 | GUUACCCUUGUCAUCGAGUGA [Fam2.1 aminoacylation ribozyme variant] | 8.14 | 10.7 | 48.1 | 4.41 | 8.39 | 4.44
14 | GUUAUCCUGGUCAUCGAGUGA [Fam2.1 aminoacylation ribozyme variant] | 9.81 | 13.1 | 16.1 | 6.24 | 10.9 | 5.41
15 | GUUCACCUAGGUCACCGGGUG [Fam2.2 aminoacylation ribozyme variant] | 5.53 | 6.73 | 28.5 | 4.06 | 3.6 | 3.55
16 | GUUCACCUAGGUCAUCCGGUG [Fam2.2 aminoacylation ribozyme variant] | 6.89 | 7.53 | 45.4 | 5.36 | 6.69 | 5.33
17 | GUUCACCUAGGUCAUCGGGCG [Fam2.2 aminoacylation ribozyme variant] | 5.06 | 4.17 | 4.6 | 2.98 | 4.01 | 3.11
18 | GUUCACCUAGGUCAUCGGGUG [Fam2.2 aminoacylation ribozyme variant] | 32.5 | 20.1 | 180 | 13.7 | 25.5 | 12.5
19 | GUUCACCUAGGUCAUCGGGUU [Fam2.2 aminoacylation ribozyme variant] | 17.9 | 9.2 | 51.7 | 7.61 | 13.5 | 6.82
20 | GUUCACCUAGGUCAUGGGGUG [Fam2.2 aminoacylation ribozyme variant] | 4.4 | 4.06 | 10.3 | 2.64 | 3.63 | 3.01
21 | GUUCACCUUGGUCAUCGGGUG [Fam2.2 aminoacylation ribozyme variant] | 5.74 | 5.93 | 37.7 | 3.45 | 5.14 | 4.34
22 | GUUCCCCUAGGUCAUCGGGUG [Fam2.2 aminoacylation ribozyme variant] | 14.2 | 12.1 | 94.8 | 7.72 | 13.3 | 8.06
23 | GUUGCCCUGGUCAUCGAGUGA [Fam2.1 aminoacylation ribozyme variant] | 57.5 | 58.8 | 382 | 19.1 | 54.2 | 23.4
24 | UACUUUGCUAAUAGUCGCAAG [Fam3.1 aminoacylation ribozyme variant] | 1.86 | 1.46 | 2.71 | 1.75 | 1.66 | 1.33
25 | UAGUUUGCGAAUAGUCGCAAG [Fam3.1 aminoacylation ribozyme variant] | 1.75 | 1.73 | 2.28 | 1.82 | 1.68 | 1.1
26 | UAGUUUGCUAAUAGUCGCAGG [Fam3.1 aminoacylation ribozyme variant] | 1.31 | 2.22 | 2.23 | 1.72 | 1.2 | 1.34

Row | Sequence | self-aminoacylation (biotinyl-Leu-oxazolone) | self-aminoacylation (biotinyl-Trp-oxazolone) | self-aminoacylation (biotinyl-Phe-oxazolone) | self-aminoacylation (biotinyl-Ile-oxazolone) | self-aminoacylation (biotinyl-Met-oxazolone) | self-aminoacylation (biotinyl-Val-oxazolone)
27 | UAUACCCUGGUCAUCGAGUGA [Fam2.1 aminoacylation ribozyme variant] | 15.5 | 16 | 25.2 | 7.17 | 14.8 | 7.52
28 | UCACACUUCAAGCAAUCCGUC [Fam1B.1 aminoacylation ribozyme variant] | 0.591 | 1.01 | 1.15 | 0.955 | 0.667 | 1.25
29 | UCACACUUCAAGCAAUCGCUC [Fam1B.1 aminoacylation ribozyme variant] | 1.3 | 1.45 | 1.94 | 1.43 | 1.46 | 1.32
30 | UCACACUUCAAGCAAUCGGUG [Fam1B.1 aminoacylation ribozyme variant] | 7.95 | 6.38 | 29 | 3.81 | 5.17 | 3.95
31 | UCACACUUCAAGCACUCGGUC [Fam1B.1 aminoacylation ribozyme variant] | 0.927 | 0.771 | 0.873 | 0.94 | 0.873 | 1.32
32 | UCACACUUCAAGCAGUCGGUC [Fam1B.1 aminoacylation ribozyme variant] | 0.879 | 0.901 | 1.06 | 0.827 | 0.968 | 0.972
33 | UCACACUUCAAGCUAUCGGUC [Fam1B.1 aminoacylation ribozyme variant] | 0.749 | 0.724 | 1.11 | 0.939 | 0.703 | 1.02
34 | UCACAUUUCAAGCAAUCGGUC [Fam1B.1 aminoacylation ribozyme variant] | 0.847 | 1.56 | 2.47 | 1.04 | 0.73 | 1.07
35 | UCGCACUUCAAGCAAUCGGUC [Fam1B.1 aminoacylation ribozyme variant] | 2.14 | 29.8 | 55.1 | 1.38 | 1.44 | 1.61
36 | UUACACCUAGGUCAUCGGGUG [Fam2.2 aminoacylation ribozyme variant] | 1.87 | 3 | 10.5 | 2.25 | 1.92 | 2.15
37 | UUACUUCAAACAAUCGGCCUG [Fam1A.1 aminoacylation ribozyme variant] | 4.03 | 43.2 | 95.3 | 2.69 | 2.35 | 2.3
38 | UUACUUCAAACAAUCGGUCCG [Fam1A.1 aminoacylation ribozyme variant] | 0.937 | 1.64 | 1.69 | 0.82 | 0.942 | 0.891
39 | UUACUUCAAACAAUCGGUGUG [Fam1A.1 aminoacylation ribozyme variant] | 2.36 | 5.33 | 7.15 | 1.51 | 1.97 | 1.46
40 | UUACUUCAAACAAUUGGUCUG [Fam1A.1 aminoacylation ribozyme variant] | 1.14 | 1.61 | 1.76 | 1.43 | 1.2 | 1.12
41 | UUCACCCUGGUCAUCGAGUGA [Fam2.1 aminoacylation ribozyme variant] | 10.6 | 12.7 | 13.2 | 5.88 | 11.3 | 6.29
42 | UUGCACCUAGGUCAUCGGGUG [Fam2.2 aminoacylation ribozyme variant] | 4.63 | 5.53 | 38.8 | 3.11 | 3.89 | 3.66
43 | UUUAACCUAGGUCAUCGGGUG [Fam2.2 aminoacylation ribozyme variant] | 7.42 | 7.19 | 36.3 | 5.19 | 5.87 | 4.48
44 | UUUAACCUGGUCAUCGAGUGA [Fam2.1 aminoacylation ribozyme variant] | 5.8 | 8.93 | 11.2 | 4.01 | 5.83 | 4.17
45 | UUUACCCAGGUCAUCGAGUGA [Fam2.1 aminoacylation ribozyme variant] | 5.06 | 6 | 21.9 | 3.49 | 5.36 | 3.55
46 | UUUACCCCGGUCAUCGAGUGA [Fam2.1 aminoacylation ribozyme variant] | 6.37 | 6.13 | 35.5 | 3.31 | 6.14 | 3.64
47 | UUUACCCUGGGCAUCGAGUGA [Fam2.1 aminoacylation ribozyme variant] | 4.84 | 5.06 | 10.4 | 2.3 | 4.18 | 2.83
48 | UUUACCCUGGUAAUCGAGUGA [Fam2.1 aminoacylation ribozyme variant] | 8.58 | 10.4 | 58.7 | 4.2 | 9.02 | 3.97
49 | UUUACCCUGGUCAUCAAGUGA [Fam2.1 aminoacylation ribozyme variant] | 1.85 | 3.07 | 3.22 | 1.25 | 2.24 | 1.63
50 | UUUACCCUGGUCAUCGAGUGG [Fam2.1 aminoacylation ribozyme variant] | 27.3 | 29.3 | 154 | 8.85 | 31.5 | 9.95
51 | UUUACCCUGGUCAUCGAGUUA [Fam2.1 aminoacylation ribozyme variant] | 6.2 | 6.24 | 16.7 | 3.03 | 7.29 | 3.5
